Measured values taken from paper PMC8385704 (2021).

Target: His-tagged recombinant human ACE2 protein (residues 19-740), dimeric (human, UniProt Q9BYF1 19-740)
Assay: BLI

His-tagged recombinant human ACE2 protein (residues 19-740), dimeric, sequence (Q9BYF1 19-740): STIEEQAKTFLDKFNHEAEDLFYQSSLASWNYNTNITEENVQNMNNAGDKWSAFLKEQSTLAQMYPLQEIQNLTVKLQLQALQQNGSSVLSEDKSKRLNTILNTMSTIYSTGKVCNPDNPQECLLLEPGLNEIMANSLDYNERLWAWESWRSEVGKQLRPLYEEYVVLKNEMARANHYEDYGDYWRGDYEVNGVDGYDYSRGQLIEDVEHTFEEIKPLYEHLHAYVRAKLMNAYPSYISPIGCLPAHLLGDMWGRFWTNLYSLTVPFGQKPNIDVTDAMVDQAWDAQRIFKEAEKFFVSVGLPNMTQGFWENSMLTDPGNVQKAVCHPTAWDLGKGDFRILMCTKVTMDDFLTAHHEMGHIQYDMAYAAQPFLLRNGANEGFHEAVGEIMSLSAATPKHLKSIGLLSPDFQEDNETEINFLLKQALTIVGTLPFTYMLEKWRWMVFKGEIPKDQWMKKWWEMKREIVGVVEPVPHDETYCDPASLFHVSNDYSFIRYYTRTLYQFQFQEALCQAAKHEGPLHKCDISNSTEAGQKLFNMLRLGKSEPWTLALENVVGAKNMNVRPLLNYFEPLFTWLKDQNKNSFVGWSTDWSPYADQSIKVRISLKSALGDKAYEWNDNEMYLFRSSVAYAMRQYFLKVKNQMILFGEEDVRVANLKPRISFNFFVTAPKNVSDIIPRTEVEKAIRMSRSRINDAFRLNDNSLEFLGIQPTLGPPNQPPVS

- koff: 0.000278 s⁻¹
B1: monoclonal antibody 3E8 (antibody, V domains shown)
VH: EVQLEESGAELVRPGASVKISCKAFGYTFTNHHINWMKQRPGQGLDWIGYVNPYNDYTKYSQNFKGKATLSVDRSSSTAYMELSSLTSEDSAVYYCARWRDYDRDWYFDVWGAGTTVIVSS
VL: DIVMTQSPATLSVTPGDRVSLSCRASQSIRDYLYWYQQKSHESPRLLIKYASQSISGIPSRFSGSGSGSDFTLSINSVEPEDVGVYYCQNGHSFPYTFGGGTKLEIK
